Reference: publication PMC2034099, “Preparation and preclinical evaluation of humanised A33 immunoconjugates for radioimmunotherapy” (British Journal of Cancer, 1995)

Target: T1, A33 antigen (Homo sapiens, endogenous on SW1222 and …, UniProt Q99795)
T1 construct: A33 antigen on human colorectal tumour cell lines; also called the antigen recognised by A33; source: endogenous, on SW1222 and Colo205 human colorectal tumour cells
Experiment: flow cytometry on cells; Scatchard analysis: FITC-labelled antibodies titrated on 2.8 x 10^5 SW1222 cells, 2 h on ice, 350 ul PBS with 5% FCS and 0.1% sodium azide; fluorescence per cell calibrated with standard beads; linear regression
Conditions: one partner purified

T1 sequence (Q99795 22-319): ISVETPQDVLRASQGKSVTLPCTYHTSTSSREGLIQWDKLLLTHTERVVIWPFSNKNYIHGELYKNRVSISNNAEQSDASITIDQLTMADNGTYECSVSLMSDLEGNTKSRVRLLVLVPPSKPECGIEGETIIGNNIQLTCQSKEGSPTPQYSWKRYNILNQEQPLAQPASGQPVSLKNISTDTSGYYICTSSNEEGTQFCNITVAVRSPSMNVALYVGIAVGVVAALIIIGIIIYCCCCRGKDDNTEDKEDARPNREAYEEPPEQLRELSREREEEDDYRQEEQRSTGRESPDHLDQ

Kd: 1.28 nM
B1: murine A33 IgG (antibody, V domains shown)
VH: EVKLVESGGGLVKPGGSLKLSCAASGFAFSTYDMSWVRQTPEKRLEWVATISSGGSYTYYLDSVKGRFTISRDSARNTLYLQMSSLRSEDTALYYCAPTTVVPFAYWGQGTLVTVSA
VL: DIVMTQSQKFMSTSVGDRVSITCKASQNVRTVVAWYQQKPGQSPKTLIYLASNRHTGVPDRFTGSGSGTDFTLTISNVQSEDLADYFCLQHWSYPLTFGSGTKLEVK
notes: the scan text reads CAPr at Kabat 92-96, restored to CAPTT from the hA33 line (94-102 are said to be murine); mouse gamma-2a heavy chain constant region ('the murine y-2a of the parent antibody'); mouse light chain constant region; IgG2a; also called mA33; mouse A33; copies: 2 + 2
